This assay addresses SARS-CoV-2 spike protein on spike pseudotyped lentivirus particles or authentic SARS-CoV-2 (SARS-CoV-2) (UniProt P0DTC2). As to the kind of experiment: cell-based or functional assay.

In turn, Wild type ACE2(614)-Fc (Fc fusion) displayed an IC50 (µg/ml), pseudovirus of 0.43 µg/mL.

The record behind these values is patent US20230257726A1.
